Values quoted from earlier work in PMC7443330.

Molecular target: Spike RBD RBD (SARS-CoV-2) (UniProt P0DTC2)

**Q.** For Spike binding peptide 1 (SBP1), which Kd is on record?
**A.** 47 nM
